{
  "source": "patent US20140057840A1",
  "about": "“ANTI-ANDROGENIC AGENT, SEBUM SECRETION BLOCKER, HAIR GROWTH STIMULANT, AND FOOD OR BEVERAGE” (LOTTE CO., LTD., priority 2009, published 2014)",
  "molecules": {"B1": {"name": "lactoferrin (protein, UniProt P24627 20-708, looked up)", "Lactotransferrin": "APRKNVRWCTISQPEWFKCRRWQWRMKKLGAPSITCVRRAFALECIRAIAEKKADAVTLDGGMVFEAGRDPYKLRPVAAEIYGTKESPQTHYYAVAVVKKGSNFQLDQLQGRKSCHTGLGRSAGWIIPMGILRPYLSWTESLEPLQGAVAKFFSASCVPCIDRQAYPNLCQLCKGEGENQCACSSREPYFGYSGAFKCLQDGAGDVAFVKETTVFENLPEKADRDQYELLCLNNSRAPVDAFKECHLAQVPSHAVVARSVDGKEDLIWKLLSKAQEKFGKNKSRSFQLFGSPPGQRDLLFKDSALGFLRIPSKVDSALYLGSRYLTTLKNLRETAEEVKARYTRVVWCAVGPEEQKKCQQWSQQSGQNVTCATASTTDDCIVLVLKGEADALNLDGGYIYTAGKCGLVPVLAENRKSSKHSSLDCVLRPTEGYLAVAVVKKANEGLTWNSLKDKKSCHTAVDRTAGWNIPMGLIVNQTGSCAFDEFFSQSCAPGADPKSRLCALCAGDDQGLDKCVPNSKEKYYGYTGAFRCLAEDVGDVAFVKNDTVWENTNGESTADWAKNLNREDFRLLCLDGTRKPVTEAQSCHLAVAPNHAVVSRSDRAAHVKQVLLHQQALFGKNGKNCPDKFCLFKSETKNLLFNDNTECLAKLGGRPTYEEYLGTEYVTAIANLKKCSTSPLLEACAFLTR", "notes": "cow's lactoferrin; protein present in secretory fluids such as milk, tears, saliva, bile of mammals"}},
  "key": {"hamster sebocytes": {"test_system": "hamster sebocytes", "assay": "Sebocyte culture test (sebum synthesis amount, Oil Red O staining)", "format": "cell-based, golden hamster", "details": "medium with 1×10^−6M testosterone; for sebum synthesis amount suppressed to: about 2 weeks, FIG. 3", "protocol": "1. The test was carried out using a hamster sebocyte culture kit KB-1000 (manufactured by KURABO […] LTD.).\nThe sebocyte cell derived from the auricula of a normal golden hamster was inoculated in a 24-well plate in a density of 5.0×10^4 cells/well. During the test, the cell was cultured in medium containing testosterone in a concentration of 1×10^−6M.\n2. The cell was cultured for several days until confluent, and the medium was exchanged with medium containing the test sample. The medium was exchanged with sample medium every other day and the culture was continued for about 2 weeks.\nIn this test, cow's lactoferrin was prepared to be used as the lactoferrin, and spironolactone was used as a control.\n3. Then, using a sebum synthesis assay kit SE-3001 (manufactured by KURABO […], LTD.), a WST-8 solution was added to each well and incubated for 30 minutes at 37° C. The supernatant was assayed at a wavelength of 450 nm, and the number of viable cell was counted.\n4. Further, the supernatant was stained with Oil Red O and observed under a microscope while extracted with 100% isopropanol and measured at a wavelength of 520 nm for the lipid synthesis amount.\nThe correction was made using the following formula, and the lipid synthesis amount per cell was compared.\nComparison of lipid synthesis amount per cell=absorbance B/absorbance A\nAbsorbance A: cell number measured value (450 nm)\nAbsorbance B: lipid synthesis amount measured value (520 nm)"}, "androgen receptor": {"target": "T1, androgen receptor (Mus musculus, UniProt P19091)", "T1 construct": "An androgen-dependent mouse breast cancer cell SC-3 cell; endogenous in cells; host or cells: SC-3 mouse breast cancer cells", "T1 sequence (P19091 1-899)": "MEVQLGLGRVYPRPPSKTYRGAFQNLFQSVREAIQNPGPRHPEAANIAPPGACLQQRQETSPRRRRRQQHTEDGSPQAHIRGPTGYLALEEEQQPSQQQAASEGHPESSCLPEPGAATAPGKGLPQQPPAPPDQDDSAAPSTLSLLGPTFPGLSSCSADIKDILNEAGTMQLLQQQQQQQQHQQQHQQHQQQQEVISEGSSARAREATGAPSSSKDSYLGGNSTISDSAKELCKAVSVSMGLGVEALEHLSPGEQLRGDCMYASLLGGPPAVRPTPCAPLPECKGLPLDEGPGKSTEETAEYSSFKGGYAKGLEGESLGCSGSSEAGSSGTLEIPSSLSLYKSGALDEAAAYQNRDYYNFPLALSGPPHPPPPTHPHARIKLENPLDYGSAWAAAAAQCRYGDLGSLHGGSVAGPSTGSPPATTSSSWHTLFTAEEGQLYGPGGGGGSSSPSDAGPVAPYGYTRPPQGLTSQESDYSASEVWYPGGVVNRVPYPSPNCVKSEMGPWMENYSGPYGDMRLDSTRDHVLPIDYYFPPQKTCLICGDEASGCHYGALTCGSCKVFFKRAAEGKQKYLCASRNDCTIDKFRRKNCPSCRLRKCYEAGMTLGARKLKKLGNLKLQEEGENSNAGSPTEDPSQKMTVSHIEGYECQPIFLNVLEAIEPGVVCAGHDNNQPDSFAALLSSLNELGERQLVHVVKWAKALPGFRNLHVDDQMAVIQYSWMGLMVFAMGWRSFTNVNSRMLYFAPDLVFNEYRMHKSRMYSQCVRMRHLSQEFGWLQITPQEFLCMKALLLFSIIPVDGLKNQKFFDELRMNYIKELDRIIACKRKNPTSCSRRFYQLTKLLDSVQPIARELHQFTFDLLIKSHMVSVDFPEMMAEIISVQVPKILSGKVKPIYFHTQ", "assay": "Androgen receptor binding blocking test (DHT-dependent proliferation of SC-3 cells, MTT assay)", "format": "cell-based", "details": "SC-3 cell, 10^−8M DHT, FIG. 2", "procedure": "24 Hours later, the culture medium was exchanged with HMB medium (0.1% BSA-containing Ham F12+MEM medium) to which the test sample and 10^−8M DHT were added, and the cell was cultured for 48 hours.\nThen, in accordance with MTT assay, the cell proliferation was evaluated by measuring the absorbance at 570 nm, which is the absorption maximum of blue formazan.\nTo correct the influence of adherent cells, the absorbance at 650 nm was also measured simultaneously, and the difference between both absorbances was used as the produced amount of blue formazan. At the same time with the above, to examine the effect of the sample alone on SC-3 cell, the same culture and measurement were carried out by adding the sample alone, without adding DHT, to the HMB medium. […] Based on the measurement results, the binding blocking rate representing the anti-androgenic activity was determined using the following formula. […]\nA: The absorbance when DHT was added but the sample was not added\nB: The absorbance when DHT was not added and the sample was not added\nC: The absorbance when DHT was added and the sample was added\nD: The absorbance when DHT was not added but the sample was added"}, "[1]": {"test_system": "testosterone 5α-reductase", "assay": "Testosterone 5α-reductase blocking test", "format": "biochemical", "details": "result in words; enzyme solution S-9; FIG. 1", "protocol": "1. 0.5 ml of 5 mM Tris-HCl buffer solution (pH 7.2) was added to 0.1 ml of 3.0 mM testosterone solution (dissolved in propylene glycol).\n2. Further, 0.1 ml of 6.7 mM NADPH solution (dissolved in 5 mM Tris-HCl buffer solution (pH 7.2)) and 0.05 ml of a sample solution (dissolved in 50% ethanol) were added thereto, the mixture was preheated at 37° C. and 0.1 ml of an enzyme solution (S-9, Oriental Yeast Co., Ltd.) was added to incubate for 1 hour.\nIn this test, cow's lactoferrin was prepared to be used as the lactoferrin, and saw palmetto was used as a control.\n3. Then, 3 ml of dichloromethane was added to terminate the reaction, 0.5 ml of an internal standard solution (0.1 mg/ml of p-hydroxybenzoic acid n-hexyl ester) was added thereto followed by shaking for 10 minutes, and the mixture was centrifuged at 3000 rpm for 10 minutes.\n4. The dichloromethane layer was separated, collected and dried under reduced pressure. […] The residual testosterone was measured by HPLC from the obtained sample solution.\nThe measurement was carried out by eluting with methanol/water (65/35) and monitoring at 254 nm under the conditions of using a YMC A-302 (internal diameter 4.6×150 mm) column at a column temperature of 40° C. at a flow rate of 1 ml/min. The measurement was carried out using the internal standard substance method and the blocking rate (%) was determined using the following formula. […]"}},
  "data": [
    {"molecule": "B1", "values": [
      {"measurement": "sebum synthesis amount suppressed to", "setting": "hamster sebocytes; 10 ppm", "value": 60, "unit": "%"},
      {"measurement": "sebum synthesis amount suppressed to", "setting": "hamster sebocytes; 20 ppm", "value": 60, "unit": "%"},
      {"measurement": "sebum synthesis amount, concentration dependence", "setting": "hamster sebocytes; result in words, microscopic observation and absorbance measurement", "value": "suppressed the sebum synthesis amount in a concentration-dependent manner"},
      {"measurement": "binding blocking activity (binding blocking rate)", "setting": "androgen receptor; concentration of 60 ppm, 48 hours", "value": "about 85%"},
      {"measurement": "binding blocking activity, concentration dependence", "setting": "androgen receptor; result in words", "value": "concentration-dependent binding blocking activity"},
      {"measurement": "testosterone 5α-reductase blocking activity", "setting": "[1]", "value": "no testosterone 5α-reductase blocking activity"}
    ]}
  ]
}
